B1: full length CrkII, dimer (CrkII^FL dimer), P46108-1 1-304 (natural protein)
chain: MAGNFDSEERSSWYWGRLSRQEAVALLQGQRHGVFLVRDSSTSPGDYVLSVSENSRVSHYIINSSGPRPPVPPSPAQPPPGVSPSRLRIGDQEFDSLPALLEFYKIHYLDTTTLIEPVSRSRQGSGVILRQEEAEYVRALFDFNGNDEEDLPFKKGDILRIRDKPEEQWWNAEDSEGKRGMIPVPYVEKYRPASASVSALIGGNQEGSHPQPLGGPEPGPYAQPSVNTPLPNLQNGPIYARVIQKRVPNAYDKTALALEVGELVKVTKINVSGQWEGECNGKRGHFPFTHVRLLDQQNPDEDFS
B2: human 14-3-3ε, P62258-1 1-255 (natural protein)
chain: MDDREDLVYQAKLAEQAERYDEMVESMKKVAGMDVELTVEERNLLSVAYKNVIGARRASWRIISSIEQKEENKGGEDKLKMIREYRQMVETELKLICCDILDVLDKHLIPAANTGESKVFYYKMKGDYHRYLAEFATGNDRKEAAENSLVAYKAASDIAMTELPPTHPIRLGLALNFSVFYYEILNSPDRACRLAKAAFDDAIAELDTLSEESYKDSTLIMQLLRDNLTLWTSDMQGDGEEQNKEALQDVEDENQ

Legend:
[1] = molecular target: full length CrkII, dimer (CrkII^FL dimer) (human), P46108; assay: SEC; conditions: remark: other sources report otherwise
[2] = molecular target: T1, human 14-3-3ε (human), P62258; assay: crystal structure; conditions: remark: other sources report otherwise
T1 chain: B2 chain

Binder | percent of the total isolated protein that is dimer [1] [%] | stoichiometry N [1] | stoichiometry N [2]
B1 | 10 | 2 | –
B2 | – | – | 2
